The target of assay [1] is complement receptor 3 (CD11b/CD18) on primary human cervical epithelial (Pex) cells (human (endogenous in Pex cells)) (UniProt P11215).
Assay [2] addresses human recombinant I-domain of the CR3 alpha subunit CD11b (human). Briefly: SPR; Biacore S200; HIV virions flowed over immobilised rI-domain or rCR3; blank ethanolamine reference flow cell; mean Kd ± SD from a minimum of two technical repeats on each of two flow cells.
Assay [3] addresses human recombinant complement receptor 3 (integrin αMβ2, CD11b/CD18) (human) (UniProt P11215). Described as above.
In assay [4] the target is complement receptor 3 (CD11b/CD18) on primary human cervical epithelial (Pex) cells (human (endogenous in Pex cells)) (UniProt P11215). Briefly: fluorometric adherence assay on cells; virions 10 ng/mL p24 equivalent, 2 h on CHO or Pex cells; cells fixed, HIV immunolabelled (goat polyclonal LS-C103187, FITC secondary) and quantified against a standard curve of virus.
Assay [5] has as its target human complement receptor 3 (CD11b/CD18) on CHO-CR3 cells (human) (UniProt P11215). The assay is described as above.

pKd: −log10 of the molar value.

One may read the pKd as the negative decadic logarithm of the Kd, by convention in mol/L. Take “HIV-1 transmitted founder strain WITO virions produced in HEK293T cells (envelope glycoprotein gp120/gp41 on the virion surface) (complex)”: the HIV-1 transcytosis across a polarized Pex cell monolayer in Transwells, no competimer; HIV p24 in the basal chamber as percent of the inoculum (10 ng/mL p24 equivalent) in assay [1] amounted to 4%. Moreover, the figures for the pKd in assay [2] and in assay [3] were 6.53 and 6.62, respectively.

With “HIV-1 transmitted founder strain REJO virions produced in HEK293T cells (envelope glycoprotein gp120/gp41 on the virion surface) (complex)”, the pKd was 6.58 in assay [2] and 7.04 in assay [3].

With “HIV-1 strain NL4-3 AD8 virions produced in HEK293T cells (envelope glycoprotein gp120/gp41 on the virion surface) (complex)”, in assay [2], the pKd is 6.62. Also, the pKd in assay [3] was 6.47. In assay [4], the adherent virus (p24 HIV equivalent) is 1.01 ng/mL and the percent of the inoculum adherent was found to be 10%.

For “HIV-1 transmitted founder strain RHPA virions produced in HEK293T cells (envelope glycoprotein gp120/gp41 on the virion surface) (complex)”, the pKd was 6.04 in assay [2] and 6.60 in assay [3].

As for “HIV-1 strain NL4-3 virions produced in HEK293T cells (envelope glycoprotein gp120/gp41 on the virion surface) (complex)”, the pKd in assay [2] was 7.04; in assay [3], 6.72.

As for “HIV-1 transmitted founder strain WITO virions, producer cells not stated (envelope glycoprotein gp120/gp41 on the virion surface) (complex)”, in assay [4], the adherent virus (p24 HIV equivalent) came out at 1.35 ng/mL and the percent of the inoculum adherent came out at 13%. Besides, in assay [5], the adherent virus (p24 HIV equivalent) is 2.4 ng/mL and the percent of the inoculum adherent was found to be 24%.

Consider “HIV-1 transmitted founder strain WITO virions propagated in primary human PBMCs (envelope glycoprotein gp120/gp41 on the virion surface) (complex)”, for which the figures for the pKd in assay [2] and in assay [3] were 8.10 and 7.97, respectively.

The values above are taken from article PMC8749410.
